{
  "source": "the RNAGym collection of RNA variant scans (doi:10.7554/elife.90254)",
  "parents": {"B1": {"name": "OR4K15 (parent)", "chain": "GUUAACGGUCAUAGGCCAUGGAAACUAGGAGCACCAUUUCGCUGCCAGUGAAGAAAUGAACAAAGAAAAUCUGGGCCAGGCAGGCAUCAAAAGAAAUAGUCUUGCGCUCAACCAGAAAGUCUGUAAUCAUUUUAAGGGUA"}},
  "data": [
    {"variants_of": "B1", "experiment": "self-cleavage, relative activity (ratio to wild type); higher = more cleavage; in vitro, sequencing; the parent is a self-cleaving ribozyme", "values": [
      {"variant": "GUUAACGGUCAUAGGCCAUGAAAACUAGGAGCACCAUGUCGCUGCCAGUGAAGAAAUGAACAAAGAAAAUCUGGGCCAGGCAGGCAUCAAAAGAAAUAGUCUUGCGCUCAACCAGAAAGUCUGUAAUCAUUUUAAGGGUA", "note": "[G21A U38G]", "self-cleavage": 1.15},
      {"variant": "GUUAACGGUCAUAGGCCAUUGAAACUAGGAGCACCAUUUCGCUGCCAGUGAAGAAAUGAACAAAGAAAAUCUGGGCCAGGCAGGCAUCAAAAGAAAUAGCCUUGCGCUCAACCAGAAAGUCUGUAAUCAUUUUAAGGGUA", "note": "[G20U U100C]", "self-cleavage": 2.46},
      {"variant": "GUUAACGGUCAUAGGCCAUGAAAACUAGGAGCACCAUUUCGCUGCCAGUGAAGAAAUGAACAAAGAAAAUCCGGGCCAGGCAGGCAUCAAAAGAAAUAGUCUUGCGCUCAACCAGAAAGUCUGUAAUCAUUUUAAGGGUA", "note": "[G21A U72C]", "self-cleavage": 0.3},
      {"variant": "GUUAACGGUCAUAGGCCAUGAAAACUAGGAGCACCAUUUCGCUGCCAGUGAAGAAAUGAACAAAGGAAAUCUGGGCCAGGCAGGCAUCAAAAGAAAUAGUCUUGCGCUCAACCAGAAAGUCUGUAAUCAUUUUAAGGGUA", "note": "[G21A A66G]", "self-cleavage": 1.12},
      {"variant": "GUUAACGGUCAUAGGCCAUGAAAACUAGGAGCACCAUUUCGCUGCCAGUGAAGAAAUGAACAAAGAAAAUCUGGGCCAGGCAGGCAUCAAAAGAAAUAGUCUUGCGCUCAACCAGAAAGUCUGUAAUCACUUUAAGGGUA", "note": "[G21A U130C]", "self-cleavage": 0.53},
      {"variant": "GUUAACGGUCAUAGGCCAUGAAAGCUAGGAGCACCAUUUCGCUGCCAGUGAAGAAAUGAACAAAGAAAAUCUGGGCCAGGCAGGCAUCAAAAGAAAUAGUCUUGCGCUCAACCAGAAAGUCUGUAAUCAUUUUAAGGGUA", "note": "[G21A A24G]", "self-cleavage": 1.35},
      {"variant": "GUUAACGGUCAUAGGCCAUGAAAACUAGGAGCACCAUUUCGCUGCCAGUGAAGAAAUGAACAAAGAAAAUCUGGGCCAGGCAGGCAUCAAAAGAAAUAGUCUUGCGCUCAACCAGAAAGACUGUAAUCAUUUUAAGGGUA", "note": "[G21A U120A]", "self-cleavage": 1.28},
      {"variant": "GUUAACGGUCAUAGGCCAUUGAAACUAGGAGCACCAUUUCGCUGCCAGUGAAGAAAUGAACAAAGAAAAUCUGGGCCAGGCAGGCAUCAAAAGAAAUAGUCUUGCGCUCAGCCAGAAAGUCUGUAAUCAUUUUAAGGGUA", "note": "[G20U A111G]", "self-cleavage": 0.04},
      {"variant": "GUUAACGGUCAUAGGCCAUGAAAACUAGGAGCACCAUUUCGCUGCCAGUGAAGAAAUGAACAAAGAAAAUCUGGGCCAGGCAGGCAUCAAAAGAAAUAGUCCUGCGCUCAACCAGAAAGUCUGUAAUCAUUUUAAGGGUA", "note": "[G21A U102C]", "self-cleavage": 2.29},
      {"variant": "GUUAACGGUCAUAGGCCAUGAAAACUAGGAGCACCAUUUCGCUGCCAGUGAAGAAAUGAACAAAGAAAAUCUGGGCCAGGCAGGCUUCAAAAGAAAUAGUCUUGCGCUCAACCAGAAAGUCUGUAAUCAUUUUAAGGGUA", "note": "[G21A A86U]", "self-cleavage": 2.01},
      {"variant": "GUUAACGGUCAUAGGCCAUUGAAACUAGGAGCACCAUUUCGCUGCCAGUGAAGAAAUGAACAAAGAAAAUCUGGGCCAGGCAGGCAUCAAAAGAAACAGUCUUGCGCUCAACCAGAAAGUCUGUAAUCAUUUUAAGGGUA", "note": "[G20U U97C]", "self-cleavage": 0.63},
      {"variant": "GUUAACGGUCAUAGGCCAUGAAAACUAGGAGCACCAUUUCGCUGCCAGUGAAGAGAUGAACAAAGAAAAUCUGGGCCAGGCAGGCAUCAAAAGAAAUAGUCUUGCGCUCAACCAGAAAGUCUGUAAUCAUUUUAAGGGUA", "note": "[G21A A55G]", "self-cleavage": 1.29},
      {"variant": "GUUAACGGUCAUAGGCCAUGAAAACUAGGAGCACCGUUUCGCUGCCAGUGAAGAAAUGAACAAAGAAAAUCUGGGCCAGGCAGGCAUCAAAAGAAAUAGUCUUGCGCUCAACCAGAAAGUCUGUAAUCAUUUUAAGGGUA", "note": "[G21A A36G]", "self-cleavage": 1.9},
      {"variant": "GUUAACGGUCAUAGGCCAUUGAAACUAGGAGCACCAUUUCGCUGCCAGUGAAGAAAUGAACAAAGAAAAUCUGGGCCAGGCAGGCAUCAAAAGAAAUAGUCUUGCGCUCAACCAGAAAGUCUGUAAUCGUUUUAAGGGUA", "note": "[G20U A129G]", "self-cleavage": 1.17},
      {"variant": "GUUAACGGUCAUAGGCCAUUGAAACUAGGAGCACCAUUUCGCUGCCAGUGAAGAAAUGAACAAAGAAAAUCUGGGCCAGGCAGGCAUCAAAAGAAAUAGUCUUGCGCUCAACCAGAAAGUCUGUAAUCACUUUAAGGGUA", "note": "[G20U U130C]", "self-cleavage": 1.04},
      {"variant": "GUUAACGGUCAUAGGCCAUGAAAACUAGGAGCACCAUUUCGCUGCCAGUGAAGAAAUGAACAAAGAAAAUCUGGGCCAGGCAGGCAUCAAAAGAAAUAGUCUUGCGCUCAACCAGAAAGUCUGUAAUCAUUUUAAGGGUA", "note": "[G21A]", "self-cleavage": 0.62},
      {"variant": "GUUAACGGUCAUAGGCCAUGAAAACUAGGAGCACCAUUUCGCUGCCAGUGAGGAAAUGAACAAAGAAAAUCUGGGCCAGGCAGGCAUCAAAAGAAAUAGUCUUGCGCUCAACCAGAAAGUCUGUAAUCAUUUUAAGGGUA", "note": "[G21A A52G]", "self-cleavage": 1.57},
      {"variant": "GUUAACGGUCAUAGGCCAUGAAAACUAGGAGCGCCAUUUCGCUGCCAGUGAAGAAAUGAACAAAGAAAAUCUGGGCCAGGCAGGCAUCAAAAGAAAUAGUCUUGCGCUCAACCAGAAAGUCUGUAAUCAUUUUAAGGGUA", "note": "[G21A A33G]", "self-cleavage": 0.33},
      {"variant": "GUUAACGGUCAUAGGCCAUGAAAACUAGGAGCACCAUUUCGCUGCCAGUGAAGAAAUGAACAAAGAAAAUCUGGGCCAGGCAGGCAUCAAAAGAAAUAGUCUUGCGCUCAACCAGAAAGUCUGUAGUCAUUUUAAGGGUA", "note": "[G21A A126G]", "self-cleavage": 1.09},
      {"variant": "GUUAACGGUCAUAGGCCAUUGAAACUAGGAGCACCAUUUCGCUGCCAGUGAAGAAAUGAACAAAGAAAAUCUGGGCAAGGCAGGCAUCAAAAGAAAUAGUCUUGCGCUCAACCAGAAAGUCUGUAAUCAUUUUAAGGGUA", "note": "[G20U C77A]", "self-cleavage": 0.73},
      {"variant": "GUUAACGGUCAUAGGCCAUGAAAACUAGGAGCACCAUUUCGCUGCCAGUGAAGAAAUGAACAAAGAAAAUCUGGGCCAGGCAGGCAUCAAAAGAACUAGUCUUGCGCUCAACCAGAAAGUCUGUAAUCAUUUUAAGGGUA", "note": "[G21A A96C]", "self-cleavage": 0.6}
    ]}
  ]
}
